Values quoted from earlier work, collected in PMC5427221.

Target: C3b C3b (Homo sapiens) (UniProt P01024)
UniProt P01024, sequence (P01024 566-670): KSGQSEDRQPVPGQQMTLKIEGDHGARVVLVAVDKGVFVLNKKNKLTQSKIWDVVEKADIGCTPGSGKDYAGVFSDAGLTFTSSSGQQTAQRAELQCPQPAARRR

- Kd: 10 µM
Substance: Factor H FH[1-4] (from UniProt P08603)
